The text below walks through data of the supplement of paper PMC7877785.

A short description of this data set: self-splicing fitness, log relative to wild type (ln ratio); higher = more splicing; Tetrahymena group I intron in knt gene, E. coli kanamycin selection, DiMSum; sequences stand for … in CUCUCU…GGAGGGAAAAGUUAUCAGGCAUGCACCUGGUAGCUAGUCUUUAAACCAAUAGAUUGCAUCGGUUUAAAAGGCAAGACCGUCAAAUUGCGGGAAAGGGGUCAACAGCCGUUCAGUACCAAGUCUCAGGGGAAACUUUGAGAUGGCCUUGCAAAGGGUAUGGUAAUAAGCUGACGGACAUGGUCCUAACCACGCAGCCAAGUCCUAAGUCAACAGAUCUUCUGUUGAUAUGGAUGCAGUUCACAGACUAAAUGUCGGUCGGGGAAGAUGUAUUCUUCUCAUAAGAUAUAGUCGGACCUCUCCUUAAUGGGAGCUAGCGGAUGAAGUGAUGCAACACUGGAGCCGCUGGGAACUAAUUUGUAUGCGAAAGUAUAUUGAUUAGUUUUGGAGUACUCGUGGUCG
The method, boiled down:
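A randomised library covering all eight P1ex-region intron nucleotides was built with the intron in the knt kanamycin-resistance gene on pET-22b(+) and held in E. coli BL21(DE3). Cells were grown overnight at 37°C or 30°C on LB agar, with or without 25 μg/mL kanamycin, plus 100 μg/mL carbenicillin, 50 μM IPTG and 0.2% rhamnose, and pooled colonies were amplicon-sequenced on an Illumina HiSeq 2500. DiMSum fitness is the error-weighted combination of wild-type-normalised replicate fold changes, kanamycin versus none.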

± gives the uncertainty stated by the source.

Consider UACAAGCAAUAUUACGAGGC, for which the “self-splicing fitness (ln)” value by setting is: (30 °C) -2.4 ± 0.3; (37 °C) -1.84 ± 0.28.

For the sequence UACAAGCAAUAUUACGAGUA, the “self-splicing fitness (ln)” value was -2.13 ± 0.08 (30 °C) and -0.707 ± 0.078 (37 °C).

On to UACAAGCAAUAUUACGAGUC, for which the “self-splicing fitness (ln)” value was -3.06 ± 0.11 (30 °C) and -1.93 ± 0.15 (37 °C).

UACAAGCAAUAUUACGAUGU: the “self-splicing fitness (ln)” value by setting is: (30 °C) -3.72 ± 0.17; (37 °C) -1.96 ± 0.14.

Take UACAAGCAAUAUUACGCCUA: the “self-splicing fitness (ln)” value was 0.14 ± 0.067 (30 °C) and -0.0341 ± 0.071 (37 °C).

In the case of UACAAGCAAUAUUACGCGGG, the “self-splicing fitness (ln)” value (30 °C) is -2.43 ± 0.086 and the “self-splicing fitness (ln)” value (37 °C) was -1.25 ± 0.099.

Take UACAAGCAAUAUUACGCGUA: the “self-splicing fitness (ln)” value is, setting by setting: (30 °C) -2.92 ± 0.24; (37 °C) -2.76 ± 0.33.

In the case of UACAAGCAAUAUUACGCUAG, the “self-splicing fitness (ln)” value runs as follows: (30 °C) -2.16 ± 0.11; (37 °C) -1.13 ± 0.11.

For the sequence UACAAGCAAUAUUACGGAAG, the “self-splicing fitness (ln)” value was -4.3 ± 0.46 (30 °C) and -2.46 ± 0.34 (37 °C).

On to UACAAGCAAUAUUACGGAUC, for which the “self-splicing fitness (ln)” value was -2.59 ± 0.21 (30 °C) and 0.047 ± 0.15 (37 °C).

On to UACAAGCAAUAUUACGGGCG, for which the “self-splicing fitness (ln)” value is, setting by setting: (30 °C) -0.448 ± 0.1; (37 °C) -0.308 ± 0.11.

For the sequence UACAAGCAAUAUUACGGUAU, the “self-splicing fitness (ln)” value is -3.83 ± 0.21 (30 °C) and -2.54 ± 0.16 (37 °C).

On to UACAAGCAAUAUUACGGUCA, for which the “self-splicing fitness (ln)” value was 0.157 ± 0.062 (30 °C) and 0.514 ± 0.072 (37 °C).

As for UACAAGCAAUAUUACGUAGG, the “self-splicing fitness (ln)” value runs as follows: (30 °C) -4 ± 0.26; (37 °C) -2.78 ± 0.27.

With UACAAGCAAUAUUACGUAGU, the “self-splicing fitness (ln)” value is, setting by setting: (30 °C) -3.88 ± 0.17; (37 °C) -2.18 ± 0.15.

On to UACAAGCAAUAUUACGUAUC, for which the “self-splicing fitness (ln)” value is, setting by setting: (30 °C) -3.94 ± 0.24; (37 °C) -2.69 ± 0.21.

For UACAAGCAAUAUUACGUGAA, the “self-splicing fitness (ln)” value is -2.42 ± 0.078 (30 °C) and -1.7 ± 0.1 (37 °C).

As to UACAAGCAAUAUUACGUGCC, the “self-splicing fitness (ln)” value was -2.49 ± 0.15 (30 °C) and -1.53 ± 0.14 (37 °C).

Take UACAAGCAAUAUUACGUUGG: the “self-splicing fitness (ln)” value reads like this: (30 °C) -3.19 ± 0.12; (37 °C) -1.41 ± 0.1.

As for UACCAGCAAUAUUACGAACA, the “self-splicing fitness (ln)” value (30 °C) is -0.482 ± 0.096 and the “self-splicing fitness (ln)” value (37 °C) is -0.258 ± 0.12.

UACCAGCAAUAUUACGAACG: the “self-splicing fitness (ln)” value (30 °C) is -0.468 ± 0.063 and the “self-splicing fitness (ln)” value (37 °C) is -0.562 ± 0.07.

As to UACCAGCAAUAUUACGAACU, the “self-splicing fitness (ln)” value (30 °C) was -2.26 ± 0.1 and the “self-splicing fitness (ln)” value (37 °C) was -0.819 ± 0.11.

Regarding UACCAGCAAUAUUACGAAUA, the “self-splicing fitness (ln)” value runs as follows: (30 °C) -0.776 ± 0.086; (37 °C) 0.199 ± 0.093.

As to UACCAGCAAUAUUACGACCA, the “self-splicing fitness (ln)” value is -0.314 ± 0.081 (30 °C) and 0.106 ± 0.1 (37 °C).

As to UACCAGCAAUAUUACGACCG, the “self-splicing fitness (ln)” value was -0.151 ± 0.067 (30 °C) and 0.099 ± 0.095 (37 °C).

On to UACCAGCAAUAUUACGACCU, for which the “self-splicing fitness (ln)” value runs as follows: (30 °C) -2.1 ± 0.17; (37 °C) -1.57 ± 0.17.

UACCAGCAAUAUUACGACGU: the “self-splicing fitness (ln)” value (30 °C) is -2.11 ± 0.082 and the “self-splicing fitness (ln)” value (37 °C) was -0.692 ± 0.089.

With UACCAGCAAUAUUACGAGCC, the “self-splicing fitness (ln)” value is, setting by setting: (30 °C) -4.51 ± 0.33; (37 °C) -2.07 ± 0.32.

UACCAGCAAUAUUACGAGCU: the “self-splicing fitness (ln)” value runs as follows: (30 °C) -3.29 ± 0.21; (37 °C) -2.7 ± 0.24.

In the case of UACCAGCAAUAUUACGCAAC, the “self-splicing fitness (ln)” value is, setting by setting: (30 °C) -2.85 ± 0.3; (37 °C) -2.19 ± 0.27.

Consider UACCAGCAAUAUUACGCAGG, for which the “self-splicing fitness (ln)” value runs as follows: (30 °C) -3.68 ± 0.21; (37 °C) -2.37 ± 0.27.

In the case of UACCAGCAAUAUUACGCCCC, the “self-splicing fitness (ln)” value is, setting by setting: (30 °C) -2.68 ± 0.5; (37 °C) -0.87 ± 0.4.

Regarding UACCAGCAAUAUUACGCCGC, the “self-splicing fitness (ln)” value is -2.89 ± 0.38 (30 °C) and -2.37 ± 0.35 (37 °C).

With UACCAGCAAUAUUACGCCUA, the “self-splicing fitness (ln)” value by setting is: (30 °C) 0.00559 ± 0.047; (37 °C) 0.659 ± 0.065.

Consider UACCAGCAAUAUUACGCGCA, for which the “self-splicing fitness (ln)” value is 0.0526 ± 0.065 (30 °C) and -0.42 ± 0.08 (37 °C).

Regarding UACCAGCAAUAUUACGCGUU, the “self-splicing fitness (ln)” value by setting is: (30 °C) -1.64 ± 0.07; (37 °C) -0.917 ± 0.086.

With UACCAGCAAUAUUACGGAUA, the “self-splicing fitness (ln)” value by setting is: (30 °C) -1.12 ± 0.077; (37 °C) -0.394 ± 0.078.
